Test results: US20180142000A1
Values joined by “and” are separate entries in the source; they are usually repeats but may differ in a detail not shown here. Equal entries are not always repeated. Where two headings read alike, the source gives them in different places.

Legend:
[1] = target: C. jejuni (strain 81-176) flagella (Campylobacter jejuni strain 81-176); assay: SPR (Biacore 3000), single-cycle kinetics, […]
[2] = target: C. jejuni (strain 81-176) flagella (Campylobacter jejuni strain 81-176); assay: ELISA on coated flagella, approximate affinity
[3] = target: C. jejuni (strain 81-176) flagella (Campylobacter jejuni strain 81-176)

| Binder | Kd [1] [nM] | koff [1] [s⁻¹] | kon [1] [M⁻¹ s⁻¹] | Kd [2] | Kd [3] [nM] | koff [3] [s⁻¹] | kon [3] [M⁻¹ s⁻¹] |
| --- | --- | --- | --- | --- | --- | --- | --- |
| FlagV1M (VHH) VHH: QVKLEESGGGLVQAGGSRRLSCATSGLTFRNFHMAWFRQVAGKEREVVAAISWSRDRQYYPDPVKGRFTITRDNAKNTVYLQMNSLKPEDTAVYYCAARTASASGDWYKGSYQYWGQGTQVTVSS | 23.9 | 0.00563 | 236000 | 20 nM and 30 nM |  |  |  |
| FlagV6M (VHH) VHH: QVKLEESGGGLVQAGGSLRVSCTASVSTFSINALGWYRQAPGKARELVAAIGSDGTVYYTDSVKGRFTISRDNAKNTVSLQMSSLKPEDTAVYYCNAAGKRIGSDGSIWFAVASFGSWGQGTQVTVSS |  |  |  |  | 25 | 0.03 | 1e+06 |
| FlagV1MDSB (VHH) VHH: QVKLEESGGGLVQAGGSRRLSCATSGLTFRNFHMAWFRQVAGKEREVVCAISWSRDRQYYPDPVKGRFTCTRDNAKNTVYLQMNSLKPEDTAVYYCAARTASASGDWYKGSYQYWGQGTQVTVSS | 18.2 | 0.0028 | 153000 |  |  |  |  |
| FlagV1F23M (VHH) VHH: QVQLVESGGGLVQAGGSRRLSCATSGLTFRNFHMAWFRQVAGKEREVVAAISWSRDRQYYPDPVKGRFTITRDNAKNTVYLQMNSLKPEDTAVYYCAARTASASGDWYKGSYQYWGQGTQVTVSS | 18.6 | 0.00426 | 229000 |  |  |  |  |
| FlagV1F23MDSB (VHH) VHH: QVQLVESGGGLVQAGGSRRLSCATSGLTFRNFHMAWFRQVAGKEREVVCAISWSRDRQYYPDPVKGRFTCTRDNAKNTVYLQMNSLKPEDTAVYYCAARTASASGDWYKGSYQYWGQGTQVTVSS | 17.3 | 0.00286 | 165000 |  |  |  |  |
